Experiments:
Gibberella zeae = type: cell-based; design: key: xx = no growth/strong inhibition; x = small inhibition; conditions: start concentration 100 μg/ml
[1] = Substrate specificity, reducing end assay; type: biochemical; conditions: in % activity of chitin powder; 16 h at optimum conditions, 50 mg/ml substrate
Protocol: (§1) Different chitinous substrates were tested to assess the substrate affinity of the novel chitinases relative to untreated chitin powder. […] As expected, the conversion of colloidal chitin is more efficient compared to chitin powder as it provides an overall smaller particle size and thereby larger surface area. Chitosan powder (degree of acetylation: 15%) was also degraded efficiently and high chitosanase activity was observed especially for C1, C3, C4 and C5. Merely basal activity was detected when cellulose was utilized as a substrate for all enzymes.
The preparation of colloidal chitin was similar to the method described by Murthy and Bleakley with some minor differences [Murthy et al., Microbiol., 2012. 10(2): p. 1-5.]. Chitin powder (Carl Roth) was dissolved in concentrated hydrochloric acid (HCl) (5 g in 100 mL) and stirred at 4° C. for 24 h, after which the mixture was centrifuged at 4000×g for 15 min at 4° C. The precipitate was washed to neutral pH with distilled water and stored at 4° C.
(§2) Enzyme samples were incubated at different temperature (10-60° C., 10° C. increment) and pH (4-11, increment 1) using different buffer systems (Acetate, Tris-HCl, MES, total molar concentration 100 mM), as well as NaCl content (0, 1. 2.5, 5, 10 and 20% w/v) to determine optimum reaction conditions. All experiments were carried out at 1.0 ml scale using 2 μM of the respective enzymes and a 5% (wv) suspension of chitin powder extracted from shrimp shells (˜400.000 g/mol; Carl, Roth) in 100 mM MAT buffer. For the determination of the substrate specificity, chitin powder (5% w/v), glycol chitin (10% v/v), colloidal chitin (5% w/v), chitosan [DA 15-25%, medium molecular weight, Sigma-Aldrich] (5% w/v) and microcrystalline cellulose powder (Sigma Aldrich) (5% w/v) were investigated, respectively. The effect of several potential co-factors on activity was elucidated at a concentration of 1 mM. Additionally, the effect of detergents [SDS 0.5% (w/v), Tween-20 and Triton X-100 both at 0.5% (v/v)] and chemicals (Imidazole 100 mM, EDTA 1 mM) on enzymatic activity was assessed. Samples were incubated in a thermomixer for 16 h at 900 rpm. After incubation, samples were analyzed using the enzyme assay. Thermostability was assessed after incubation of recombinant chitinases at 60° C. for different durations followed by the quantification of residual enzyme activity under standard assay conditions.

[2] = Enzyme kinetics on chitin powder (Michaelis-Menten non-linear fit); type: biochemical; conditions: 2 μM enzyme, 0-150 mg/ml chitin powder
Protocol: Enzyme kinetics were determined using chitin powder as a substrate and the optimum enzyme to substrate ratio could be determined as well as Vmax and Km values. The concentrations of chitin powder varied
from 0 mg/ml up to 150 mg/ml while amount of enzyme was kept constant (2 μM). The initial velocities (V0) versus substrate concentration ([S]) were plotted as Lineweaver-Burk and Michaelis-Menten curves using GraphPad software (FIG. 7).
Maximum reaction velocities (Vmax) and Michaelis-Menten constants (Km) were determined using a non-linear fit Michaelis-Menten model (Table 4.6). Thereby, optimum enzyme-substrate ratios were determined that would allow a maximization of substrate conversion rates. Furthermore, the Km indicated the reciprocal enzyme-substrate affinity for C1-C5. Higher Km values reflect an overall lower affinity and thus reduced conversion efficiencies. […] In comparison, higher Km values for C2 and C5 reflected an overall lower affinity to insoluble chitin.
as §2

[3] = Reducing end assay, specific chitinase activity of expression and purification fractions; type: biochemical; conditions: chitin powder, 16 h at 30° C.
Protocol: Integrity and correctness of the constructs was confirmed by colony PCR and Sanger-sequencing. All constructs were transformed into E. coli BL21 and expressed recombinantly. Expression levels of the target enzymes were determined densitometrically after immunoblot detection for cytosolic and secreted expression. Enzymatic activity was determined for all samples using a reducing end assay. […] Furthermore, it was confirmed that these enzymes are efficiently released into the culture supernatant, rendering cell lysis unnecessary for future production cycles.
A two-step purification of the selected recombinant enzymes with PelB signal peptide form the culture supernatant was carried out with an initial ammonium sulfate precipitation step and a sequential IMAC purification of the solubilized protein precipitate. Elution fractions were pooled and an SDS-PAGE and immunoblot was prepared loading the same volume for each sample (FIG. 4). Expression levels of the five chitinases varied largely, and C1 was detected in much greater abundance relative to the others. […] The observed molecular weight of all enzymes in SDS-PAGE gel and immunoblot was not in accordance with the expected theoretical molecular weight taking into account that a 6×His tag was added C-terminally to the enzymes and in general, bands for all enzymes were detected at a higher molecular weight. For all samples, unspecific bands could detected at ˜25 kDa and ˜50 kDa after IMAC purification, most likely representing host cell protein-contaminations. The amount of protein in the culture media, ammonium sulfate concentrates and the final dialyzed elution fractions was determined using the BCA assay and the same fractions were incubated with chitin powder for 16 h at 30° C. followed by the quantification of reducing sugars to measure specific chitinase activity (Table 4.2). Thereby it was confirmed that all target enzymes were successfully enriched during purification according to the specific activity.
For the determination of enzymatic activity of recombinant chitinases, a reducing end assay was carried out [Svein et al., Carbohydr Polym, 2004. 56(1): p. 35-39.]. Fractions containing chitinases were incubated with 5% (w/v) chitin powder extracted from shrimp shells (˜400.000 g/mol; Carl Roth) in MAT buffer for 2 h in an overhead shaker at ambient temperature (standard conditions). Samples were centrifuged at 13000×g for 2 min and 40 μl of the supernatant was mixed with 40 μl 0.5 M NaOH and 40 μL of a reagent containing 1.5 mg/ml 3-Methyl-2-benzothiazolinonhydrazon and 0.75 mg/ml Dithiothreitol. Samples were incubated at 80° C. for 15 min and then thoroughly mixed with 80 μl of 0.5% (w/v) FeNH4(SO4)2)×12H2O, 0.5% (w/v) sulfamic acid and 0.25 M HCl. After cooling down to room temperature, 100 μl of the samples were measured at 620 nm. A calibration curve of N-acetyl-glucosamine was constructed freshly for each measuring cycle. One unit [U] was defined as the amount of enzyme required to release 1 μmol of reducing sugars per hour.

Septoria tritici = assay: Minimum inhibitory concentration (MIC) test on fungal pathogens; type: cell-based; design: key: xx = no growth/strong inhibition; x = small inhibition; conditions: start concentration 100 μg/ml
[4] = Substrate specificity, reducing end assay; type: biochemical; conditions: in % activity of chitin powder; 16 h at optimum conditions, 50 mg/ml substrate; remark: listed apart in the source
Protocol: as §1, §2

[5] = Dialysed elution fraction after IMAC

Row | Molecule | growth inhibition of Gibberella zeae in the MIC test (Gibberella zeae) | Relative activity, Colloidal chitin [1] [%] | Km (enzyme-substrate affinity) [2] [mg/mL] | Vmax (maximum reaction velocity) [2] [U/ml] | Specific activity ([3]; Culture supernatant fraction) [U/mg] | Specific activity [3, 5] [U/mg] | growth inhibition of Septoria tritici in the MIC test (Septoria tritici) | Relative activity, Cellulose [4] [%] | Relative activity, Chitin [4] [%] | Relative activity, Chitosan [4] [%]
1 | Chitinase 5: chitinolytic enzyme from P. orarium, SEQ ID NO: 5, recombinant with PelB signal peptide and 6×His tag (protein, listed as Photobacterium orarium, PelB signal peptide; 6xHis tag; Chitinase 5) MAMGWSQININGVQKWEEAYSLNVDAANEIITIGAADTAGALYASQSLLQLVDGNKVPEVQITDAPRFAYRGFSVDAVRNFRTKDAIIQLLDQMAAFKLNKLHLRLADDEGWRIEIAGLPELTDVGATRCHDPEEKACILPFLGAGPDGSPESNGYYTATDYQDILSHAAALNIEVVPEIDIPGHAHAAIKAMEARYDHYAAQGNMAEANKYLLTDFNDTTQYLSVQMFTDNAINVCMESSYNFVDAVVSGLVSLHQGVQPLKTFHFGGDEIAGAWINSPACQDFIANNTDGVHSVSDLSRYFVERISVITANYGLDMAGWEDGLMHDGQVYPRSQMANNQLWGNAWQNIWEWGVADRAYNLANNDYKVVYNHATHLYFDHPYEPDPNERGYYWAPRFTDTRKTFGFMPDDVFANADFTRAGAPITKAEVVASAGVKKLLKPENVLGLQGSLWAEAVRTEDQFEGMIFPRVLGLAERAWHTATWEANDNAGIALDETGRNADYNHFANLLGQKVLPKLEQAGIAFNLPVPGGVIENGVLQANSTFPGLTIEYSTDQGTSWQSYDHLNPPAVAAGVQLRTVSGQRTSRVTTVNIE | xx | 164.1 ± 2.8 | 36.0 | 89.5 | 0.03 | 6.67 | xx | 11.2 ± 1.1 | 100 | 117.8 ± 1.7
2 | Chitinase 1: chitinolytic enzyme from P. orarium, SEQ ID NO: 1, recombinant with PelB signal peptide and 6×His tag; run 19 = 2 μM alone (protein, listed as Photobacterium orarium, PelB signal peptide; 6xHis tag; Chitinase 1, run 19 = 2 μM alone) MAAPGTPQIAWMETDYAIVEVDQAASAYKSLITVKPAAEVPVAWQRYSGETADLWKVKLNGNVVFEQSIAPASSGAGSTTLSVAQGGQYAMTVELCSGTGAAQACTSSAATNIVVADTDGSHLDPLPMNVDANNGNYTTPANTVVGAYFVEWGVYGRKFSVDNIPAQNLTHILYGFIPICGPNESLGEIENGNSLAALNRACQGTPDYEVVIHDPWAAVQMPQPQSGHTHSTPYKGTYGQMMALKQRYPDLKIVPSVGGWTLSDPFYSFTDKAKRDIFVASVKKFLKTWKFFDGVDIDWEFPGGKGANANLGDPVNDGPAYVALMRELRVMLDELEAETGRQYELTSAIGVGYDKIDVVNYADAVQYMDYIFAMTYDFFGGWNNVPGHQTALFCGSHMSADVCNGTGVDENGVPRQGPAYTAAHGIDRLLAQGVPANKLVLGTAMYARGWTGVTEASMTDPTNPMTGTGNGMVPGSWEPGVIDYKDVVTDYINNAAVTKGYDAQAEAPWAYNPSNGNLITYDDRRSVLAKGQYVRNLGLAGLFAWEIDADNGDILNAMQDSLAGGGGNYAPVAKAGADQVVNGAASVTLDGSASSDRDGQIVSYQWTQTSGPALTLTGSDTATATVAVPEVTADTQYAFTLTVTDNAGDTATDSVTVTAKAPGSNTAPVVAVSGPATASAGDTVVLDASQSSDADGDTLTFTWTVPAGVNATVNGATVSFVADSYTVDTPLNFTVAVSDGTDSVTESVTVTVLKDGGSTGCTNAWATGGVYNSGDIVTHSGKSWKAKWWTTGEEPGTTGEWGVWEDLGAANCQIE | x | 159.9 ± 4.8 | 9.1 | 197.7 | 0.10 | 3.52 | xx | 14.3 ± 5.7 | 100 | 117.1 ± 9.1
3 | Chitinase 2: chitinolytic enzyme from P. orarium, SEQ ID NO: 2, recombinant with PelB signal peptide and 6×His tag (protein, listed as Photobacterium orarium, PelB signal peptide; 6xHis tag; Chitinase 2) MATANYNPDGVYSAGEQVIYQGATYQALRSTENEAPDTYLGDAWQQVNAQNVTSSTTPTYPAYQSSAVYVGGDHVSYNSQIYKAKWWTQGEAPDATPGTGVWEWVSADNNPDPGPGPDPDPTPEPTPANGIIGQNPDGSYIMSKTYLDAREAELTSSPEFAAVLASISTRDNAVVEAVVPGLSTNPDNVKRVEALISEQKWDALFPERNVVYTYSNFLKAVAKFKGFCATYTDERAAQSDAICAKSLAVMFAHFTQETGAHNPHSPYEEWRQGLFFVREAGCSEEASSCGYNSECAASNWQTEQWPCGTNPDGSYVKYFGRGAKQLSYHYNYGPFSDFIFNDVNVLLQDPDRVADSWLNLASAVFFFVYPQPPKPSMLHVIDGTWQPTAADIAEKRVPGFGVTTMIINGGIECTLDTEKPQSVNRIKYYRGHAAALGVAIPADEQLGCAGMKAFKKTGDSTFGLYWENDWSYYPDNPGGSSFACRIESGYQTAHTTLKKGDYAKCIQKYYGVTIE | xx | 191.4 ± 4.7 | 61.8 | 175.4 | 0.04 | 5.36 | xx | 10.0 ± 1.1 | 100 | 71.4 ± 6.7
